For this data set, the target named is Mre11-Rad50 (hMR) WT-WT;Nbs1 (Homo sapiens;Homo sapiens, UniProt Q92878;P49959;O60934 1-1312;1-708;1-754, |). The data set can be described thus: EMSA. A general note: Mobility shift assays separate free from complexed probe on a gel.

This is an account of results in PMC5435944.

Chain of Mre11-Rad50 (hMR) WT-WT;Nbs1 (Q92878 whole entry, chain 1 of 3): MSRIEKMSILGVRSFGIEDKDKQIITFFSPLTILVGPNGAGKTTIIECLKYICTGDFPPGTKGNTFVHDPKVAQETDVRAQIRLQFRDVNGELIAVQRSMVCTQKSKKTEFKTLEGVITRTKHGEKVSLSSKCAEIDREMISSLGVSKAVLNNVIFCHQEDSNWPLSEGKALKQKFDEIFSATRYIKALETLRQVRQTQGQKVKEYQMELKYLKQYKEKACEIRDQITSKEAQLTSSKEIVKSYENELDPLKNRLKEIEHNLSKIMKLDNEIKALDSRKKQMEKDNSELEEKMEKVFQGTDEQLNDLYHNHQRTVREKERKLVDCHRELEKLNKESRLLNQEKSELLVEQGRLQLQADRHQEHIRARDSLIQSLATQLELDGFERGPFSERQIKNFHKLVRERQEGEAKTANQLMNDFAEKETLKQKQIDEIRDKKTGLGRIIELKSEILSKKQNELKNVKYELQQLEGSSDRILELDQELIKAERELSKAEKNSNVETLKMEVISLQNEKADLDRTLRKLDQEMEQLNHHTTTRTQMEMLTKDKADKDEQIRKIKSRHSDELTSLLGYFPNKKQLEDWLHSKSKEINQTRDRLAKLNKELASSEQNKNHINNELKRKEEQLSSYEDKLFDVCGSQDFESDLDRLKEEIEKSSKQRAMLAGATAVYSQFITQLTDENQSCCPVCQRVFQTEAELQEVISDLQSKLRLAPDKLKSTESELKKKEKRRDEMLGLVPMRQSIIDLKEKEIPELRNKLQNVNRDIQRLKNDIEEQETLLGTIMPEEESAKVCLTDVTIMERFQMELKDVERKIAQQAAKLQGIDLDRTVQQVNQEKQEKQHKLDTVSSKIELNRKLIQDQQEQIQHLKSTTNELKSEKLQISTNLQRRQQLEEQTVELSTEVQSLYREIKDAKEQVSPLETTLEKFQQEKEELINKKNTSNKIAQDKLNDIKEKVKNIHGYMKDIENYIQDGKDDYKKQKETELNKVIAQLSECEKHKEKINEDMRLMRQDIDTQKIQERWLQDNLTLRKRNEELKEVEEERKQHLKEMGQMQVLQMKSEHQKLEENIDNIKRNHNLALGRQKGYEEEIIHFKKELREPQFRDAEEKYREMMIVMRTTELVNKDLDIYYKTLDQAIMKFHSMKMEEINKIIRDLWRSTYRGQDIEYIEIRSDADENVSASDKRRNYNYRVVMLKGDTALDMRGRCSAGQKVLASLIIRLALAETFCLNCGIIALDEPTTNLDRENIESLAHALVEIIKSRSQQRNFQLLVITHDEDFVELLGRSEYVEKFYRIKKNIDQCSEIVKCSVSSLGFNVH
Chain of Mre11-Rad50 (hMR) WT-WT;Nbs1 (P49959 whole entry, chain 2 of 3): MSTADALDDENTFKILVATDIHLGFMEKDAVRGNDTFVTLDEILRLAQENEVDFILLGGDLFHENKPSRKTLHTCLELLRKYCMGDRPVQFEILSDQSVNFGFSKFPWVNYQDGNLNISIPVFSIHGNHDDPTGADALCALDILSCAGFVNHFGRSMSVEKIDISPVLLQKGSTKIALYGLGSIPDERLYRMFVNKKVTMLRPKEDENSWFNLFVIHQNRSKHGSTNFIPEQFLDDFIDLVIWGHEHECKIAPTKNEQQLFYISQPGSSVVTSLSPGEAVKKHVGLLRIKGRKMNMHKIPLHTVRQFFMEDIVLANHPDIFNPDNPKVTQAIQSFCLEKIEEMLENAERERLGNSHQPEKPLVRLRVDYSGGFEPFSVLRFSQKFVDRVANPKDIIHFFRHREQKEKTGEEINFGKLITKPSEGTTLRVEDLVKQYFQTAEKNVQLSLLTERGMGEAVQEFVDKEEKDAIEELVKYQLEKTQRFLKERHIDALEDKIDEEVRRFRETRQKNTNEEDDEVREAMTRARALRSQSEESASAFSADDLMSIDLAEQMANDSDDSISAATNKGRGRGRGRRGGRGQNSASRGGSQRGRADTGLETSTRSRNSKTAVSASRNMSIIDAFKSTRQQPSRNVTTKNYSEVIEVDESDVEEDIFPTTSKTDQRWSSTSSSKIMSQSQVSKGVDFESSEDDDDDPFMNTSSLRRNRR
Chain of Mre11-Rad50 (hMR) WT-WT;Nbs1 (O60934 whole entry, chain 3 of 3): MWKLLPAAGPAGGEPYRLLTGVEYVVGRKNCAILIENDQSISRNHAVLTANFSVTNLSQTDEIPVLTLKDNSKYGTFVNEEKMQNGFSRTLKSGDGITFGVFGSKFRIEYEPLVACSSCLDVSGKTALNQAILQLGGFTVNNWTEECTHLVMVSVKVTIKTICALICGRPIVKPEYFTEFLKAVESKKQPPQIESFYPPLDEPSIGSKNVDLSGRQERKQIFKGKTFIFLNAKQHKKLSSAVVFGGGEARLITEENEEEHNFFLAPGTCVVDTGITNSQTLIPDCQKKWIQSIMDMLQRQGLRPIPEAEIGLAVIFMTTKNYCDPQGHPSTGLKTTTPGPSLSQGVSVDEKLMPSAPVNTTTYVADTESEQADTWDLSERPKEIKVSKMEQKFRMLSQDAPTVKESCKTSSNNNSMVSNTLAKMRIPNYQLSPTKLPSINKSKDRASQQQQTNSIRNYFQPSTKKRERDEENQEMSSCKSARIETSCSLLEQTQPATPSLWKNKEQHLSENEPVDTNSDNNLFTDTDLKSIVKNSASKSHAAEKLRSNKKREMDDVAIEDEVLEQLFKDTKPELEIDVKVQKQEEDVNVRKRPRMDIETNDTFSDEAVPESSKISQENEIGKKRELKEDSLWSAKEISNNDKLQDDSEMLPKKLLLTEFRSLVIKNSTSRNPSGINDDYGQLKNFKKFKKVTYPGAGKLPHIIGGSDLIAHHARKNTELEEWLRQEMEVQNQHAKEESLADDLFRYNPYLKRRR

B1: TP4536/TP4559 (dsDNA)
DNA 1: TGGGTCAACGTGGGCAAAGATGTCCTAGCAATGTAATCGTCTATGACGTT
DNA 2: AACGTCATAGACGATTACATTGCTAGGACATCTTTGCCCACGTTGACCCA
modifications: 5' biotin-TEG on strand 1; five phosphorothioate bonds at 3' end of strand 2 (G*A*C*C*C*A)
Regarding B1, the binding result is “binds”.
